The source of these data is patent publication US20190375821A1 (IBENTRUS, published 2019).

Usually Kd stands for a measure of binding affinity in units of concentration. Low readings indicate tighter binding, high ones weaker binding.

For one assay, the target named is T1, NRP2 (UniProt O60462 23-864, limits assumed).
T1 construct: Control 'natural receptor'
Put plainly: ELISA, VEGF165.

For the next assay, the target named is T2, NRP1 (UniProt O14786-2 22-644, limits assumed).
T2 construct: Control 'natural receptor'; also called neuropilin-1; neuropilin 1
Put plainly: ELISA, VEGF165. On the technique in general: ELISA stands for enzyme-linked immunosorbent assay.

T1 sequence (O60462 23-864 limits assumed): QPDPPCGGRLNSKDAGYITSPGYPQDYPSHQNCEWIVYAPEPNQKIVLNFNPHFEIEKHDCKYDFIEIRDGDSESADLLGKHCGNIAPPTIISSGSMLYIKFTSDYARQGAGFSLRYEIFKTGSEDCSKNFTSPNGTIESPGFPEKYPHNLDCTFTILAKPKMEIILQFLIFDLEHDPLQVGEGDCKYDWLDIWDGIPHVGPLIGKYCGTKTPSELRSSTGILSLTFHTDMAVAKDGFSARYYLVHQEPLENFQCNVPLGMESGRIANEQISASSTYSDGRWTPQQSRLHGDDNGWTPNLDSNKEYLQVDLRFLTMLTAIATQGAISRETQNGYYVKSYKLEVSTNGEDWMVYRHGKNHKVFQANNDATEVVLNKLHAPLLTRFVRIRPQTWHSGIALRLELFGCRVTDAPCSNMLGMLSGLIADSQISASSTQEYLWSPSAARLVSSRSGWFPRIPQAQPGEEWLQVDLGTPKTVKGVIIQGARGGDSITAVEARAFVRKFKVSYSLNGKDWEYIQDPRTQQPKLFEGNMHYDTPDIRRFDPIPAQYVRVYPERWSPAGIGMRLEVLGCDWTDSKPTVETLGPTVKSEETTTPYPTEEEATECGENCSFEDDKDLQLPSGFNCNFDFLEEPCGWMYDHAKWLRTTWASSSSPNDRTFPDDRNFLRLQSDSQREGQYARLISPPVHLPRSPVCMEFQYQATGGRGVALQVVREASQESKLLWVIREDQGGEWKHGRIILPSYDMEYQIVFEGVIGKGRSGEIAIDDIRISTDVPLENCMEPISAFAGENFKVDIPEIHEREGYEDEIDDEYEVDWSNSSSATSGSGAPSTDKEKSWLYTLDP

B1: VEGF165 (ligand, UniProt P15692-4 27-191, looked up)
chain: APMAEGGGQNHHEVVKFMDVYQRSYCHPIETLVDIFQEYPDEIEYIFKPSCVPLMRCGGCCNDEGLECVPTEESNITMQIMRIKPHQGQHIGEMSFLQHNKCECRPKKDRARQENPCGPCSERRKHLFVQDPQTCKCSCKNTDSRCKARQLELNERTCRCDKPRR
notes: also called VEGFA
B1: the Kd worked out at 8 nM with NRP2 and 0.312 nM in the assay with NRP1.
